Results on one substance are retold here after patent publication US20250034222A1, “IL-38 VARIANTS” (Monash University, priority 2021, published 2025).

This data set is described as follows: Nano differential scanning fluorimetry of IL-38-Fc variants (apparent melting temperature). It is filed as physicochemical. To be noted: N-terminal IL-38-Fc variants, knobs-into-holes IgG1-Fc, IL-38 (C70V, C37S, C38R, C43A, C67A, C123S). The source says: Indicated IL-38 chains differing in their N-terminus were expressed and purified from Expi293 cells. The relative purification yield is indicated between the N-terminal variants. The stability of the purified product was monitored by nano differential scanning fluorimetry and is expressed as the apparent melting temperature (Tm). N-terminal variants (except 2-152) were trialled as “knobs-into-holes” IgG1-Fc fusions utilising the IL-38 (C70V, C37S, C38R, C43A, C67A, C123S) sequence. The 2-152 N-terminal variant was trialled as “knobs-into-holes” IgG1-Fc fusions utilising the IL-38 (C2A, C70V, C37S, C38R, C43A, C67A, C123S) sequence.
Indicated linker variants were expressed and purified from Expi293 cells. The relative purification yield is indicated between the linker variants. The stability of the purified product was monitored by nano differential scanning fluorimetry and is expressed as the apparent melting temperature (Tm). […] All N-terminal linker variants were trialled as “knobs-into-holes” IgG1-Fc fusions utilising the IL-38 (C70V, C37S, C38R, C43A, C67A, C123S) sequence.

For the substance “3-152: Knobs-into-holes IgG1-Fc fusion, IL-38 chain residues 3-152 (C70V, C37S, C38R, C43A, C67A, C123S); probably SEQ ID NO: 25/26”, the “Stability (apparent melting temperature, Tm)” value is 66.0 °C.
